Here are results for one molecule from US20110171194A1 (TRUSTEES OF COLUMBIA UNIVERSITY IN THE CITY OF NEW YORK, published 2011).

The assay deals with T1, Aβ(1-42) (UniProt P05067 672-713).
T1 construct: domain: Aβ(1-42); Residue numbers count on Aβ, not on APP
As to the kind of experiment: 125I-labeled GST-ABAD truncation binding to immobilized Aβ(1-42).

T1 sequence (P05067 672-713 limits assumed): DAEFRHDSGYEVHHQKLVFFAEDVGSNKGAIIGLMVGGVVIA

B1: GST-ABAD(159-261) (other, UniProt Q99714 159-261, looked up)
chain: FEGQVGQAAYSASKGGIVGMTLPIARDLAPIGIRVMTIAPGLFGTPLLTSLPEKVCNFLASQVPFPSRLGDPAEYAHLVQAIIENPFLNGEVIRLDGAIRMQP
modifications: 125I-labeled
notes: not shown: glutathione S-transferase (GST) tag
For the molecule B1, the binding result is on record as “no binding”.
